Experimental data published in PMC4760221, “Phosphorylation Regulates the Endocytic Function of the Yeast Dynamin-Related Protein Vps1” (Molecular and Cellular Biology, 2015).
Where a chain is given by its changes, count along the chain named. In names and notes the source's numbering stands.

B1: His-tagged Vps1 wild type (natural protein, S. cerevisiae, UniProt P21576 1-704, looked up)
chain: MDEHLISTINKLQDALAPLGGGSQSPIDLPQITVVGSQSSGKSSVLENIVGRDFLPRGTGIVTRRPLVLQLINRRPKKSEHAKVNQTANELIDLNINDDDKKKDESGKHQNEGQSEDNKEEWGEFLHLPGKKFYNFDEIRKEIVKETDKVTGANSGISSVPINLRIYSPHVLTLTLVDLPGLTKVPVGDQPPDIERQIKDMLLKYISKPNAIILSVNAANTDLANSDGLKLAREVDPEGTRTIGVLTKVDLMDQGTDVIDILAGRVIPLRYGYIPVINRGQKDIEHKKTIREALENERKFFENHPSYSSKAHYCGTPYLAKKLNSILLHHIRQTLPEIKAKIEATLKKYQNELINLGPETMDSASSVVLSMITDFSNEYAGILDGEAKELSSQELSGGARISYVFHETFKNGVDSLDPFDQIKDSDIRTIMYNSSGSAPSLFVGTEAFEVLVKQQIRRFEEPSLRLVTLVFDELVRMLKQIISQPKYSRYPALREAISNQFIQFLKDATIPTNEFVVDIIKAEQTYINTAHPDLLKGSQAMVMVEEKLHPRQVAVDPKTGKPLPTQPSSSKAPVMEEKSGFFGGFFSTKNKKKLAALESPPPVLKATGQMTERETMETEVIKLLISSYFSIVKRTIADIIPKALMLKLIVKSKTDIQKVLLEKLYGKQDIEELTKENDITIQRRKECKKMVEILRNASQIVSSV
notes: Vps1, dynamin-related protein of S. cerevisiae; also called recombinant Vps1; wild-type Vps1
B2: His-tagged Vps1 S599V (natural protein, S. cerevisiae, UniProt P21576 1-704, looked up)
chain: B1 chain with S599V
notes: Vps1, dynamin-related protein of S. cerevisiae, with S599V; also called S599V mutant; pKA971
B3: His-tagged Vps1 S599D (natural protein, S. cerevisiae, UniProt P21576 1-704, looked up)
chain: B1 chain with S599D
notes: Vps1, dynamin-related protein of S. cerevisiae, with S599D; also called S599D mutant; pKA972

Biological target: the molecule itself
Assay: negative-stain transmission electron microscopy; purified recombinant Vps1; oligomeric single rings and double-ring structures seen after negative staining

Protein | binding result
B1 | binds
B2 | binds
B3 | binds
